Measured values reported in publication PMC7954794 (2021).

B1: S. cerevisiae Abp1 (full length; SH3 domain 535-592 mutated) / Hua2 (parent complex)
chain 1: MALEPIDYTTHSREIDAEYLKIVRGSDPDTTWLIISPNAKKEYEPESTGSSFHDFLQLFDETKVQYGLARVSPPGSDVEKIIIIGWCPDSAPLKTRASFAANFAAVANNLFKGYHVQVTARDEDDLDENELLMKISNAAGARYSIQTSSKQQGKASTPPVKKSFTPSKSPAPVSKKEPVKTPSPAPAAKISSRVNDNNDDDDWNEPELKERDFDQAPLKPNQSSYKPIGKIDLQKVIAEEKAKEDPRLVQKPTAAGSKIDPSSDIANLKNESKLKRDSEFNSFLGTTKPPSMTESSLKNDDDKVIKGFRNEKSPAQLWAERKAKQNSGNAETKAEAPKPEVPEDEPEGEPDVKDLKSKFEGLAASEKEEEEMENKFAPPPKKSEPTIISPKPFSKPQEPVKAEEAEQPKTDYKKIGNPLPGMHIEADNEEEPEENDDDWDDDEDEAAQPPLPSRNVASGAPVQKEEPEQEEIAPSLPSRNSIPAPKQEEAPEQAPEEEIEEEAEEAAPQLPSRSSAAPPPPPRRATPEKKPKENPWATAEYDYDAAEDNELTFVENDKIINIEFVDDDWWLGELEKDGSKGLFPSNYVSLGN
chain 2: MQQTKFGKMYLDHDSVVEYSEDEIVEADRITLGYKKRLSMIENQMRHLLEDFSLDVQQIEPILADLQKYYDAFLQLLQKRNKSLQCKRSTHQPVPSPMNSQTSTNAKVNLSGKLMKFQLNSVQKFDEENILRILQNKIEFEHYFQIDKGKKQKVLLLAVYQCLNGPTRLHKVLNIEGIIHNNSIRTILGKQVSSSKWTVFLYDVKLVLLAHRQDVPNLETSKMIVRYGDLFPCALYFKDHTAY

Variants of: B1
Experiment: DHFR protein-fragment complementation in yeast (Abp1-DHFR F[1,2] x partner-DHFR F[3]), deep mutational scanning, second methotrexate selection vs reference; S. cerevisiae, DHFR-PCA selection in liquid with methotrexate at 30 C, two 72 h selections (the score uses the second); reference = the pre-selection culture

| Variant | screen value |
| --- | --- |
| chain 1 MALEPIDYTTHSREIDAEYLKIVRGSDPDTTWLIISPNAKKEYEPESTGSSFHDFLQLFDETKVQYGLARVSPPGSDVEKIIIIGWCPDSAPLKTRASFAANFAAVANNLFKGYHVQVTARDEDDLDENELLMKISNAAGARYSIQTSSKQQGKASTPPVKKSFTPSKSPAPVSKKEPVKTPSPAPAAKISSRVNDNNDDDDWNEPELKERDFDQAPLKPNQSSYKPIGKIDLQKVIAEEKAKEDPRLVQKPTAAGSKIDPSSDIANLKNESKLKRDSEFNSFLGTTKPPSMTESSLKNDDDKVIKGFRNEKSPAQLWAERKAKQNSGNAETKAEAPKPEVPEDEPEGEPDVKDLKSKFEGLAASEKEEEEMENKFAPPPKKSEPTIISPKPFSKPQEPVKAEEAEQPKTDYKKIGNPLPGMHIEADNEEEPEENDDDWDDDEDEAAQPPLPSRNVASGAPVQKEEPEQEEIAPSLPSRNSIPAPKQEEAPEQAPEEEIEEEAEEAAPQLPSRSSAAPPPPPRRATPEKKPKENPWATAEYDYDAMEDNELTFVENDKIINIEFVDDDWWLGELEKDGSKGLFPSNYVSLGN [chain 1 A546M] | -0.41 DMS score: mean over two replicates of log2(f_test/f_ref + 0.5)/ln 2, minus the synonymous-codon median (not a log2 … |
| chain 1 MALEPIDYTTHSREIDAEYLKIVRGSDPDTTWLIISPNAKKEYEPESTGSSFHDFLQLFDETKVQYGLARVSPPGSDVEKIIIIGWCPDSAPLKTRASFAANFAAVANNLFKGYHVQVTARDEDDLDENELLMKISNAAGARYSIQTSSKQQGKASTPPVKKSFTPSKSPAPVSKKEPVKTPSPAPAAKISSRVNDNNDDDDWNEPELKERDFDQAPLKPNQSSYKPIGKIDLQKVIAEEKAKEDPRLVQKPTAAGSKIDPSSDIANLKNESKLKRDSEFNSFLGTTKPPSMTESSLKNDDDKVIKGFRNEKSPAQLWAERKAKQNSGNAETKAEAPKPEVPEDEPEGEPDVKDLKSKFEGLAASEKEEEEMENKFAPPPKKSEPTIISPKPFSKPQEPVKAEEAEQPKTDYKKIGNPLPGMHIEADNEEEPEENDDDWDDDEDEAAQPPLPSRNVASGAPVQKEEPEQEEIAPSLPSRNSIPAPKQEEAPEQAPEEEIEEEAEEAAPQLPSRSSAAPPPPPRRATPEKKPKENPWATAEYDYDAAEDNELTFVENDKIINIEFVDHDWWLGELEKDGSKGLFPSNYVSLGN [chain 1 D567H] | -2.08 DMS score: mean over two replicates of log2(f_test/f_ref + 0.5)/ln 2, minus the synonymous-codon median (not a log2 … |

The next lines start with the values.

| screen value | Variant |
| --- | --- |
| -0.86 DMS score: mean over two replicates of log2(f_test/f_ref + 0.5)/ln 2, minus the synonymous-codon median (not a log2 … | chain 1 MALEPIDYTTHSREIDAEYLKIVRGSDPDTTWLIISPNAKKEYEPESTGSSFHDFLQLFDETKVQYGLARVSPPGSDVEKIIIIGWCPDSAPLKTRASFAANFAAVANNLFKGYHVQVTARDEDDLDENELLMKISNAAGARYSIQTSSKQQGKASTPPVKKSFTPSKSPAPVSKKEPVKTPSPAPAAKISSRVNDNNDDDDWNEPELKERDFDQAPLKPNQSSYKPIGKIDLQKVIAEEKAKEDPRLVQKPTAAGSKIDPSSDIANLKNESKLKRDSEFNSFLGTTKPPSMTESSLKNDDDKVIKGFRNEKSPAQLWAERKAKQNSGNAETKAEAPKPEVPEDEPEGEPDVKDLKSKFEGLAASEKEEEEMENKFAPPPKKSEPTIISPKPFSKPQEPVKAEEAEQPKTDYKKIGNPLPGMHIEADNEEEPEENDDDWDDDEDEAAQPPLPSRNVASGAPVQKEEPEQEEIAPSLPSRNSIPAPKQEEAPEQAPEEEIEEEAEEAAPQLPSRSSAAPPPPPRRATPEKKPKENPWATAEYDYDAAEDNELTFVENDKIINIEFVDDDWWTGELEKDGSKGLFPSNYVSLGN [chain 1 L571T] |
| -0.0642 DMS score: mean over two replicates of log2(f_test/f_ref + 0.5)/ln 2, minus the synonymous-codon median (not a log2 … | chain 1 MALEPIDYTTHSREIDAEYLKIVRGSDPDTTWLIISPNAKKEYEPESTGSSFHDFLQLFDETKVQYGLARVSPPGSDVEKIIIIGWCPDSAPLKTRASFAANFAAVANNLFKGYHVQVTARDEDDLDENELLMKISNAAGARYSIQTSSKQQGKASTPPVKKSFTPSKSPAPVSKKEPVKTPSPAPAAKISSRVNDNNDDDDWNEPELKERDFDQAPLKPNQSSYKPIGKIDLQKVIAEEKAKEDPRLVQKPTAAGSKIDPSSDIANLKNESKLKRDSEFNSFLGTTKPPSMTESSLKNDDDKVIKGFRNEKSPAQLWAERKAKQNSGNAETKAEAPKPEVPEDEPEGEPDVKDLKSKFEGLAASEKEEEEMENKFAPPPKKSEPTIISPKPFSKPQEPVKAEEAEQPKTDYKKIGNPLPGMHIEADNEEEPEENDDDWDDDEDEAAQPPLPSRNVASGAPVQKEEPEQEEIAPSLPSRNSIPAPKQEEAPEQAPEEEIEEEAEEAAPQLPSRSSAAPPPPPRRATPEKKPKENPWATAEYDYDAAEDNELTFVCNDKIINIEFVDDDWWLGELEKDGSKGLFPSNYVSLGN [chain 1 E555C] |
| -2.97 DMS score: mean over two replicates of log2(f_test/f_ref + 0.5)/ln 2, minus the synonymous-codon median (not a log2 … | chain 1 MALEPIDYTTHSREIDAEYLKIVRGSDPDTTWLIISPNAKKEYEPESTGSSFHDFLQLFDETKVQYGLARVSPPGSDVEKIIIIGWCPDSAPLKTRASFAANFAAVANNLFKGYHVQVTARDEDDLDENELLMKISNAAGARYSIQTSSKQQGKASTPPVKKSFTPSKSPAPVSKKEPVKTPSPAPAAKISSRVNDNNDDDDWNEPELKERDFDQAPLKPNQSSYKPIGKIDLQKVIAEEKAKEDPRLVQKPTAAGSKIDPSSDIANLKNESKLKRDSEFNSFLGTTKPPSMTESSLKNDDDKVIKGFRNEKSPAQLWAERKAKQNSGNAETKAEAPKPEVPEDEPEGEPDVKDLKSKFEGLAASEKEEEEMENKFAPPPKKSEPTIISPKPFSKPQEPVKAEEAEQPKTDYKKIGNPLPGMHIEADNEEEPEENDDDWDDDEDEAAQPPLPSRNVASGAPVQKEEPEQEEIAPSLPSRNSIPAPKQEEAPEQAPEEEIEEEAEEAAPQLPSRSSAAPPPPPRRATPEKKPKENPWATAEYDYDAAEDNELTFVENDKIINIEFVDQDWWLGELEKDGSKGLFPSNYVSLGN [chain 1 D567Q] |
